Data from the supplement of paper PMC9112550, “Optimization of the antimicrobial peptide Bac7 by deep mutational scanning” (BMC Biology, 2022).

Tested on: Escherichia coli TOP10
Assay: shrunken log2 fold change of peptide-encoding DNA abundance (4.5 h post-induction vs induction); higher = less antimicrobial activity (less host growth inhibition)
Conditions: time post-induction: 4.5 h; library: site-saturation at positions 5, 18, 19, 20
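Also: peptides expressed intracellularly from a pBAD plasmid library in pooled LB shake-flask culture, induced with 0.3% L-arabinose, DNA abundance read by NGS, three biological replicates, DESeq2 with apeglm shrinkage.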

## RRIRLRPPRLPRPRPRPWIGPRP
  shrunken log2 fold change: -0.177

## RRIRLRPPRLPRPRPRPWKWPRP
  shrunken log2 fold change: -0.184

## RRIRLRPPRLPRPRPRPWMNPRP
  shrunken log2 fold change: -0.0474

## RRIRLRPPRLPRPRPRPWPFPRP
  shrunken log2 fold change: -0.0764

## RRIRLRPPRLPRPRPRPWPIPRP
  shrunken log2 fold change: 0.0461

## RRIRLRPPRLPRPRPRPWPTPRP
  shrunken log2 fold change: 0.0538

## RRIRLRPPRLPRPRPRPWQYPRP
  shrunken log2 fold change: -0.0471

## RRIRLRPPRLPRPRPRPWTDPRP
  shrunken log2 fold change: -0.279

## RRIRLRPPRLPRPRPRPWTRPRP
  shrunken log2 fold change: -0.148

## RRIRLRPPRLPRPRPRPWVLPRP
  shrunken log2 fold change: -0.0289

## RRIRLRPPRLPRPRPRPWVWPRP
  shrunken log2 fold change: -0.199

## RRIRLRPPRLPRPRPRPWWPPRP
  shrunken log2 fold change: 0.0144

## RRIRLRPPRLPRPRPRPWYRPRP
  shrunken log2 fold change: -0.3

## RRIRLRPPRLPRPRPRPYCNPRP
  shrunken log2 fold change: -0.963

## RRIRLRPPRLPRPRPRPYCRPRP
  shrunken log2 fold change: -0.256

## RRIRLRPPRLPRPRPRPYEDPRP
  shrunken log2 fold change: -0.125

## RRIRLRPPRLPRPRPRPYFEPRP
  shrunken log2 fold change: -0.453

## RRIRLRPPRLPRPRPRPYHAPRP
  shrunken log2 fold change: -0.186

## RRIRLRPPRLPRPRPRPYIGPRP
  shrunken log2 fold change: -0.129

## RRIRLRPPRLPRPRPRPYIHPRP
  shrunken log2 fold change: -1.05

## RRIRLRPPRLPRPRPRPYKHPRP
  shrunken log2 fold change: -0.619

## RRIRLRPPRLPRPRPRPYLHPRP
  shrunken log2 fold change: -0.447

## RRIRLRPPRLPRPRPRPYMWPRP
  shrunken log2 fold change: -1.05

## RRIRLRPPRLPRPRPRPYNFPRP
  shrunken log2 fold change: -0.0404

## RRIRLRPPRLPRPRPRPYQAPRP
  shrunken log2 fold change: 0.0204

## RRIRLRPPRLPRPRPRPYRIPRP
  shrunken log2 fold change: -0.796

## RRIRLRPPRLPRPRPRPYRWPRP
  shrunken log2 fold change: -0.0173

## RRIRLRPPRLPRPRPRPYSFPRP
  shrunken log2 fold change: -0.841

## RRIRLRPPRLPRPRPRPYVAPRP
  shrunken log2 fold change: -0.602

## RRIRLRPPRLPRPRPRPYVHPRP
  shrunken log2 fold change: -0.783

## RRIRLRPPRLPRPRPRPYVSPRP
  shrunken log2 fold change: -0.0356

## RRIRLRPPRLPRPRPRPYWQPRP
  shrunken log2 fold change: 0.0322

## RRIRLRPPRLPRPRPRPYYDPRP
  shrunken log2 fold change: -0.379

## RRIRLRPPRLPRPRPRPYYHPRP
  shrunken log2 fold change: -0.712

## RRIRLRPPRLPRPRPRPYYQPRP
  shrunken log2 fold change: -0.0534

## RRIRMRPPRLPRPRPRPAANPRP
  shrunken log2 fold change: -0.00188

## RRIRMRPPRLPRPRPRPACDPRP
  shrunken log2 fold change: 0.974

## RRIRMRPPRLPRPRPRPADFPRP
  shrunken log2 fold change: 0.0087

## RRIRMRPPRLPRPRPRPADHPRP
  shrunken log2 fold change: 0.173

## RRIRMRPPRLPRPRPRPADPPRP
  shrunken log2 fold change: 0.36

## RRIRMRPPRLPRPRPRPAEFPRP
  shrunken log2 fold change: 1.15

## RRIRMRPPRLPRPRPRPAEPPRP
  shrunken log2 fold change: 0.449

## RRIRMRPPRLPRPRPRPAHSPRP
  shrunken log2 fold change: 0.111

## RRIRMRPPRLPRPRPRPAIGPRP
  shrunken log2 fold change: 0.0174

## RRIRMRPPRLPRPRPRPAISPRP
  shrunken log2 fold change: 0.0806

## RRIRMRPPRLPRPRPRPALEPRP
  shrunken log2 fold change: 0.347

## RRIRMRPPRLPRPRPRPAMIPRP
  shrunken log2 fold change: -0.0626

## RRIRMRPPRLPRPRPRPANQPRP
  shrunken log2 fold change: 0.191

## RRIRMRPPRLPRPRPRPANSPRP
  shrunken log2 fold change: 0.0248

## RRIRMRPPRLPRPRPRPAPPPRP
  shrunken log2 fold change: 1.43

## RRIRMRPPRLPRPRPRPARNPRP
  shrunken log2 fold change: -0.0385

## RRIRMRPPRLPRPRPRPARYPRP
  shrunken log2 fold change: 0.581

## RRIRMRPPRLPRPRPRPATHPRP
  shrunken log2 fold change: -0.0207

## RRIRMRPPRLPRPRPRPAVEPRP
  shrunken log2 fold change: 0.741

## RRIRMRPPRLPRPRPRPAVRPRP
  shrunken log2 fold change: 0.835

## RRIRMRPPRLPRPRPRPAWWPRP
  shrunken log2 fold change: 0.879

## RRIRMRPPRLPRPRPRPAYMPRP
  shrunken log2 fold change: -0.0929

## RRIRMRPPRLPRPRPRPAYPPRP
  shrunken log2 fold change: 0.0222

## RRIRMRPPRLPRPRPRPCAMPRP
  shrunken log2 fold change: 0.424

## RRIRMRPPRLPRPRPRPCEEPRP
  shrunken log2 fold change: 0.0566

## RRIRMRPPRLPRPRPRPCFKPRP
  shrunken log2 fold change: 0.145

## RRIRMRPPRLPRPRPRPCGDPRP
  shrunken log2 fold change: 0.34

## RRIRMRPPRLPRPRPRPCIAPRP
  shrunken log2 fold change: 0.099

## RRIRMRPPRLPRPRPRPCKQPRP
  shrunken log2 fold change: 0.0203

## RRIRMRPPRLPRPRPRPCKWPRP
  shrunken log2 fold change: 0.0169

## RRIRMRPPRLPRPRPRPCPDPRP
  shrunken log2 fold change: -0.0886

## RRIRMRPPRLPRPRPRPCPEPRP
  shrunken log2 fold change: 0.123

## RRIRMRPPRLPRPRPRPCPIPRP
  shrunken log2 fold change: -0.404

## RRIRMRPPRLPRPRPRPCPVPRP
  shrunken log2 fold change: 0.0171

## RRIRMRPPRLPRPRPRPCSMPRP
  shrunken log2 fold change: -0.0341

## RRIRMRPPRLPRPRPRPCSRPRP
  shrunken log2 fold change: 0.296

## RRIRMRPPRLPRPRPRPCTIPRP
  shrunken log2 fold change: -0.263

## RRIRMRPPRLPRPRPRPCTNPRP
  shrunken log2 fold change: 0.0685

## RRIRMRPPRLPRPRPRPCWQPRP
  shrunken log2 fold change: 0.0757

## RRIRMRPPRLPRPRPRPCYMPRP
  shrunken log2 fold change: -0.605

## RRIRMRPPRLPRPRPRPDAVPRP
  shrunken log2 fold change: 3.73

## RRIRMRPPRLPRPRPRPDCIPRP
  shrunken log2 fold change: 1.76

## RRIRMRPPRLPRPRPRPDCPPRP
  shrunken log2 fold change: 0.0739

## RRIRMRPPRLPRPRPRPDDDPRP
  shrunken log2 fold change: -0.00152

## RRIRMRPPRLPRPRPRPDDVPRP
  shrunken log2 fold change: -0.00192

## RRIRMRPPRLPRPRPRPDDYPRP
  shrunken log2 fold change: 0.766

## RRIRMRPPRLPRPRPRPDFFPRP
  shrunken log2 fold change: 0.29

## RRIRMRPPRLPRPRPRPDFMPRP
  shrunken log2 fold change: -0.0119

## RRIRMRPPRLPRPRPRPDFQPRP
  shrunken log2 fold change: -0.0477

## RRIRMRPPRLPRPRPRPDGWPRP
  shrunken log2 fold change: 1.48

## RRIRMRPPRLPRPRPRPDHQPRP
  shrunken log2 fold change: 0.143

## RRIRMRPPRLPRPRPRPDIFPRP
  shrunken log2 fold change: 0.118

## RRIRMRPPRLPRPRPRPDKMPRP
  shrunken log2 fold change: 0.323

## RRIRMRPPRLPRPRPRPDKPPRP
  shrunken log2 fold change: -0.00474

## RRIRMRPPRLPRPRPRPDKYPRP
  shrunken log2 fold change: -0.212

## RRIRMRPPRLPRPRPRPDLFPRP
  shrunken log2 fold change: 0.803

## RRIRMRPPRLPRPRPRPDLGPRP
  shrunken log2 fold change: 0.11

## RRIRMRPPRLPRPRPRPDLQPRP
  shrunken log2 fold change: 0.461

## RRIRMRPPRLPRPRPRPDMAPRP
  shrunken log2 fold change: 1.86

## RRIRMRPPRLPRPRPRPDPAPRP
  shrunken log2 fold change: 1.13

## RRIRMRPPRLPRPRPRPDQPPRP
  shrunken log2 fold change: -0.0102

## RRIRMRPPRLPRPRPRPDQYPRP
  shrunken log2 fold change: -0.418

## RRIRMRPPRLPRPRPRPDSFPRP
  shrunken log2 fold change: -0.0586

## RRIRMRPPRLPRPRPRPDSWPRP
  shrunken log2 fold change: 1.59

## RRIRMRPPRLPRPRPRPDTAPRP
  shrunken log2 fold change: 1.24

## RRIRMRPPRLPRPRPRPDTFPRP
  shrunken log2 fold change: 0.403

## RRIRMRPPRLPRPRPRPDTLPRP
  shrunken log2 fold change: -0.122

## RRIRMRPPRLPRPRPRPDVIPRP
  shrunken log2 fold change: -0.0756

## RRIRMRPPRLPRPRPRPDVMPRP
  shrunken log2 fold change: 0.147

## RRIRMRPPRLPRPRPRPDYDPRP
  shrunken log2 fold change: 0.635

## RRIRMRPPRLPRPRPRPDYNPRP
  shrunken log2 fold change: -0.21

## RRIRMRPPRLPRPRPRPEALPRP
  shrunken log2 fold change: 3.81

## RRIRMRPPRLPRPRPRPEDVPRP
  shrunken log2 fold change: -0.0102

## RRIRMRPPRLPRPRPRPEEKPRP
  shrunken log2 fold change: 2.64

## RRIRMRPPRLPRPRPRPEEPPRP
  shrunken log2 fold change: 0.0975

## RRIRMRPPRLPRPRPRPEFLPRP
  shrunken log2 fold change: 0.113

## RRIRMRPPRLPRPRPRPEGHPRP
  shrunken log2 fold change: 2.72

## RRIRMRPPRLPRPRPRPEGKPRP
  shrunken log2 fold change: 3.36

## RRIRMRPPRLPRPRPRPEIGPRP
  shrunken log2 fold change: 2.62

## RRIRMRPPRLPRPRPRPELFPRP
  shrunken log2 fold change: 3.28

## RRIRMRPPRLPRPRPRPEMDPRP
  shrunken log2 fold change: 3.88

## RRIRMRPPRLPRPRPRPEMNPRP
  shrunken log2 fold change: 3.59

## RRIRMRPPRLPRPRPRPEMPPRP
  shrunken log2 fold change: 0.791

## RRIRMRPPRLPRPRPRPENFPRP
  shrunken log2 fold change: 0.0515

## RRIRMRPPRLPRPRPRPENIPRP
  shrunken log2 fold change: 0.0472

## RRIRMRPPRLPRPRPRPEPSPRP
  shrunken log2 fold change: 2.72

## RRIRMRPPRLPRPRPRPERKPRP
  shrunken log2 fold change: 2.06

## RRIRMRPPRLPRPRPRPERLPRP
  shrunken log2 fold change: 0.442

## RRIRMRPPRLPRPRPRPESHPRP
  shrunken log2 fold change: 0.076

## RRIRMRPPRLPRPRPRPESLPRP
  shrunken log2 fold change: 1.69

## RRIRMRPPRLPRPRPRPESMPRP
  shrunken log2 fold change: 2.6

## RRIRMRPPRLPRPRPRPETQPRP
  shrunken log2 fold change: 0.359

## RRIRMRPPRLPRPRPRPFACPRP
  shrunken log2 fold change: -0.1

## RRIRMRPPRLPRPRPRPFAHPRP
  shrunken log2 fold change: -0.00592

## RRIRMRPPRLPRPRPRPFCCPRP
  shrunken log2 fold change: 0.534

## RRIRMRPPRLPRPRPRPFCFPRP
  shrunken log2 fold change: 0.222

## RRIRMRPPRLPRPRPRPFFYPRP
  shrunken log2 fold change: -0.123

## RRIRMRPPRLPRPRPRPFHPPRP
  shrunken log2 fold change: -0.0444

## RRIRMRPPRLPRPRPRPFIFPRP
  shrunken log2 fold change: -0.233

## RRIRMRPPRLPRPRPRPFKMPRP
  shrunken log2 fold change: 0.0516

## RRIRMRPPRLPRPRPRPFLAPRP
  shrunken log2 fold change: 0.0298

## RRIRMRPPRLPRPRPRPFLGPRP
  shrunken log2 fold change: 0.254

## RRIRMRPPRLPRPRPRPFNIPRP
  shrunken log2 fold change: -0.3

## RRIRMRPPRLPRPRPRPFNVPRP
  shrunken log2 fold change: -0.0076

## RRIRMRPPRLPRPRPRPFQIPRP
  shrunken log2 fold change: -0.0803

## RRIRMRPPRLPRPRPRPFQTPRP
  shrunken log2 fold change: 0.00707

## RRIRMRPPRLPRPRPRPFRPPRP
  shrunken log2 fold change: -0.16

## RRIRMRPPRLPRPRPRPFSSPRP
  shrunken log2 fold change: 0.0321

## RRIRMRPPRLPRPRPRPGCRPRP
  shrunken log2 fold change: 1.22

## RRIRMRPPRLPRPRPRPGCSPRP
  shrunken log2 fold change: 0.815

## RRIRMRPPRLPRPRPRPGCTPRP
  shrunken log2 fold change: 0.245

## RRIRMRPPRLPRPRPRPGDIPRP
  shrunken log2 fold change: 0.025

## RRIRMRPPRLPRPRPRPGECPRP
  shrunken log2 fold change: -0.0159

## RRIRMRPPRLPRPRPRPGEDPRP
  shrunken log2 fold change: 0.118

## RRIRMRPPRLPRPRPRPGFDPRP
  shrunken log2 fold change: 0.908
